Source: paper PMC5974431

T1: V1-TRF2, Q15554
T1 chain: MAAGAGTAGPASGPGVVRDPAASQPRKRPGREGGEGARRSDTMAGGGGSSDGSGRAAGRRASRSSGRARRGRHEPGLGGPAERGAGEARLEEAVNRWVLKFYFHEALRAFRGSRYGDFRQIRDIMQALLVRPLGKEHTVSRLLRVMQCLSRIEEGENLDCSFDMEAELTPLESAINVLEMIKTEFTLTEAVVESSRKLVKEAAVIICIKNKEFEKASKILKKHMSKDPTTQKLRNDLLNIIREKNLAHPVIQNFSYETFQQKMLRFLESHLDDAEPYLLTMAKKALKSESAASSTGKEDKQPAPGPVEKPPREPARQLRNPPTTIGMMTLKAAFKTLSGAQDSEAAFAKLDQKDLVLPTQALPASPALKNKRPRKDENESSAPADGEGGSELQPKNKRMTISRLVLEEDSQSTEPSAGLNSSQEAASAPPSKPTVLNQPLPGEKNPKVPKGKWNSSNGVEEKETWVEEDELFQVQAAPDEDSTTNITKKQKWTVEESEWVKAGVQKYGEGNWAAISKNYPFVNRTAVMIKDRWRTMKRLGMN


Target: T1, V1-TRF2, Q15554
Test: protein fragment complementation assay (PCA), split Venus
Settings: chain shown with the change; coexpression by cotransfection; three separate transfections each measured in triplicate; parent: est. 12500; read off a plot

response (fluorescence activity minus background)	Binder
5900	TIN2L-V2, Q9BSI4-1 R282H (protein) MATPLVAGPAALRFAAAASWQVVRGRCVEHFPRVLEFLRSLRAVAPGLVRYRHHERLCMGLKAKVVVELILQGRPWAQVLKALNHHFPESGPIVRDPKATKQDLRKILEAQETFYQQVKQLSEAPVDLASKLQELEQEYGEPFLAAMEKLLFEYLCQLEKALPTPQAQQLQDVLSWMQPGVSITSSLAWRQYGVDMGWLLPECSVTDSVNLAEPMEQNPPQQQRLALHNPLPKAKPGTHLPQGPSSRTHPEPLAGRHFNLAPLGRRRVQSQWASTRGGHKEHPTVMLFPFRNLGSPTQVISKPESKEEHAIYTADLAMGTRAASTGKSKSPCQTLGGRALKENPVDLPATEQKENCLDCYMDPLRLSLLPPRARKPVCPPSLCSSVITIGDLVLDSDEEENGQGEGKESLENYQKTKFDTLIPTLCEYLPPSGHGAIPVSSCDCRDSSRPL
5700	TIN2L-V2, Q9BSI4-1 D391K; D395K (protein) MATPLVAGPAALRFAAAASWQVVRGRCVEHFPRVLEFLRSLRAVAPGLVRYRHHERLCMGLKAKVVVELILQGRPWAQVLKALNHHFPESGPIVRDPKATKQDLRKILEAQETFYQQVKQLSEAPVDLASKLQELEQEYGEPFLAAMEKLLFEYLCQLEKALPTPQAQQLQDVLSWMQPGVSITSSLAWRQYGVDMGWLLPECSVTDSVNLAEPMEQNPPQQQRLALHNPLPKAKPGTHLPQGPSSRTHPEPLAGRHFNLAPLGRRRVQSQWASTRGGHKERPTVMLFPFRNLGSPTQVISKPESKEEHAIYTADLAMGTRAASTGKSKSPCQTLGGRALKENPVDLPATEQKENCLDCYMDPLRLSLLPPRARKPVCPPSLCSSVITIGKLVLKSDEEENGQGEGKESLENYQKTKFDTLIPTLCEYLPPSGHGAIPVSSCDCRDSSRPL
